Drawing on patent US20140302075A1, this text covers Fold increase in activity over AspRS1^N1 (TLR4 Activity; SEAP reporter, HEK-Blue TLR4 cells) for one substance.

The test has as its target human TLR4 receptor (expressed on HEK-Blue TLR4 reporter cells) (human) (UniProt O00206). Put plainly: cell-based or functional assay.
Sequence of UniProt O00206 (O00206 24-839): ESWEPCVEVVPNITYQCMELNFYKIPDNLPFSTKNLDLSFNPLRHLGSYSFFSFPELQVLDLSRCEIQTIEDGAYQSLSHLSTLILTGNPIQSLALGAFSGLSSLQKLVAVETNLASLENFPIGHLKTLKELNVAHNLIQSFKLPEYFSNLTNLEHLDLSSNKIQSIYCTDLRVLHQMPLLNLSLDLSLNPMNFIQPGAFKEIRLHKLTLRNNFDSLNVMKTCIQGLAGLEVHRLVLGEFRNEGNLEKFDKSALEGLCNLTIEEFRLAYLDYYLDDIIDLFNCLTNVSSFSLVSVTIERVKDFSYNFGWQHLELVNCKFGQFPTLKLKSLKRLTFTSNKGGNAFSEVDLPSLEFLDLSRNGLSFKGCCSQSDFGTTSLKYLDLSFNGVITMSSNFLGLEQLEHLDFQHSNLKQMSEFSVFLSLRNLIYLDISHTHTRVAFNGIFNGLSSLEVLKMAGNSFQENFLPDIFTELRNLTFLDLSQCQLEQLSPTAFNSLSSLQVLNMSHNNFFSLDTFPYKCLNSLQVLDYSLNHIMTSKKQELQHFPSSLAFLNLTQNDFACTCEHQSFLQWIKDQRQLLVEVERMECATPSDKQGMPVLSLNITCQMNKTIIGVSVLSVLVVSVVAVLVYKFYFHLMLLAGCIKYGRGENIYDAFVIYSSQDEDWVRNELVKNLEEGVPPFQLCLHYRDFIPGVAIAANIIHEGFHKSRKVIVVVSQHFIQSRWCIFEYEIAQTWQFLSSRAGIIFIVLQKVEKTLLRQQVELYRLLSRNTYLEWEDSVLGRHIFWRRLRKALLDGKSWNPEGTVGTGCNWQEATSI

The substance “AspRS1^N1 (C76S) (amino acids 1-154 of human aspartyl-tRNA synthetase with Cys76 to Ser, C-terminal V5His tag) (ligand)” showed a Fold increase in activity over AspRS1^N1 (TLR4 Activity; SEAP reporter, HEK-Blue TLR4 cells) of 3.6 fold.
